Results reported in patent publication US20110229458A1 (published 2011).
Positions count from the first letter of the chain named.

B1: DMS7148 (other)
chain: HGEGTFTSDVSSYLEGQAAKEFIADLVEGRGPSSDIQMTQSPSSLSASVGDRVTITCRASQWIGSQLSWYQQKPGKAPKLLIMWRSSLQSGVPSRFSGSGSGTDFTLTISSLQPEDFATYYCAQGAALPRTFGQGTKVEIKR
B2: DMS7161 (other)
chain: B1 chain with A126L, A127R, L128H, R130K

Legend:
human GLP-1 receptor [1] = target: T1, human GLP-1 receptor (human, UniProt P43220 24-463); test: cell-based or functional assay
T1 sequence (P43220 24-463): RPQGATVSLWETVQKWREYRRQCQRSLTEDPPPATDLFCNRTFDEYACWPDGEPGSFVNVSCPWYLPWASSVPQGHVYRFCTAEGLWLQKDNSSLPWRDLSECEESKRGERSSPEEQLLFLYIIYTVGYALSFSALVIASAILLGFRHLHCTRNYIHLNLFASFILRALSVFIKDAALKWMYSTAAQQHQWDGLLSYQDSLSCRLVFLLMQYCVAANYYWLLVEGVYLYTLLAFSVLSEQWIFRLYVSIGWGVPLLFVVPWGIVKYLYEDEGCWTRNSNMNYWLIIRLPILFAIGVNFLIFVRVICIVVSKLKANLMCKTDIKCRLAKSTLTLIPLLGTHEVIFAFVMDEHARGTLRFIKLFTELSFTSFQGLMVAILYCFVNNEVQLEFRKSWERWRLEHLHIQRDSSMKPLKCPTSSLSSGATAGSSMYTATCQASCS

human GLP-1 receptor [2] = target: T1, human GLP-1 receptor; test: cell-based or functional assay; remark: listed apart in the source

pEC50 (6CRE luciferase reporter, CHO 6CRE GLP1R cells) (human GLP-1 receptor [1]) | EC50 (M) (luciferase reporter, CHO 6CRE GLP1R cells); preparation DMS7161 A (human GLP-1 receptor [2]) | EC50 (M) (luciferase reporter, CHO 6CRE GLP1R cells); preparation DMS7161 B (human GLP-1 receptor [2]) | pEC50 (luciferase reporter, CHO 6CRE GLP1R cells); preparation DMS7161 A (human GLP-1 receptor [2]) | pEC50 (luciferase reporter, CHO 6CRE GLP1R cells); preparation DMS7161 B (human GLP-1 receptor [2]) | Binder
9.45 |  |  |  |  | B1
 | 3.4e-09 M | 1.6e-09 M | 8.47 | 8.79 | B2
